Measurements from paper PMC12753105, “Evolution of a fuzzy ribonucleoprotein complex in viral assembly” (eLife, 2025).

Target: the molecule itself
Experiment: dynamic light scattering

B1: LRS peptide N_(210-246):G214C (peptide)
peptide: MAGNCGDAALALLLLDRLNQLESKMSGKGQQQQGQTV
notes: also called N_(LRS, 210-246):G214C; G214C cysteine mutant LRS peptide
- binding result: binds
